System: Escherichia coli TOP10
Experiment: shrunken log2 fold change of peptide-encoding DNA abundance (4.5 h post-induction vs induction); higher = less antimicrobial activity (less host growth inhibition)
Conditions: time post-induction: 4.5 h; library: site-saturation at positions 5, 18, 19, 20
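Also: peptides expressed intracellularly from a pBAD plasmid library in pooled LB shake-flask culture, induced with 0.3% L-arabinose, DNA abundance read by NGS, three biological replicates, DESeq2 with apeglm shrinkage.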

Sequence	shrunken log2 fold change
RRIRARPPRLPRPRPRPYMSPRP	0.00296
RRIRHRPPRLPRPRPRPLHIPRP	-0.453
RRIRRRPPRLPRPRPRPKLKPRP	0.211
RRIRFRPPRLPRPRPRPFEGPRP	0.0456
RRIRLRPPRLPRPRPRPPNLPRP	-0.321
RRIRERPPRLPRPRPRPHMTPRP	0.0464
RRIRLRPPRLPRPRPRPWMAPRP	-0.346
RRIRFRPPRLPRPRPRPWHWPRP	0.00852
RRIRARPPRLPRPRPRPMKVPRP	-0.0785
RRIRSRPPRLPRPRPRPELMPRP	0.469
RRIRKRPPRLPRPRPRPSYLPRP	-0.144
RRIRCRPPRLPRPRPRPEGIPRP	-0.106
RRIRQRPPRLPRPRPRPYMNPRP	-0.155
RRIRTRPPRLPRPRPRPSVGPRP	-0.055
RRIRTRPPRLPRPRPRPALEPRP	0.122
RRIRARPPRLPRPRPRPQASPRP	0.242
RRIRARPPRLPRPRPRPNNAPRP	0.00673
RRIRARPPRLPRPRPRPSFGPRP	1.08
RRIRGRPPRLPRPRPRPKQHPRP	0.906
RRIRARPPRLPRPRPRPDWKPRP	-0.108

Sequence	shrunken log2 fold change
RRIRQRPPRLPRPRPRPANYPRP	-0.0497
RRIRERPPRLPRPRPRPNFKPRP	-0.181
RRIRIRPPRLPRPRPRPAKYPRP	-0.247
RRIRSRPPRLPRPRPRPPDGPRP	0.447
RRIRARPPRLPRPRPRPCSKPRP	0.0365
RRIRNRPPRLPRPRPRPMLCPRP	0.0164
RRIRDRPPRLPRPRPRPCQTPRP	0.00442
RRIRDRPPRLPRPRPRPRTVPRP	-0.142
RRIRERPPRLPRPRPRPCSLPRP	-0.264
RRIRARPPRLPRPRPRPQMMPRP	0.129
RRIRGRPPRLPRPRPRPYWEPRP	-0.0842
RRIRCRPPRLPRPRPRPDDSPRP	0.14
RRIRARPPRLPRPRPRPLFVPRP	0.0919
RRIRSRPPRLPRPRPRPFIIPRP	-0.34
RRIRIRPPRLPRPRPRPPKYPRP	-0.886
RRIRARPPRLPRPRPRPAFEPRP	0.702
RRIRLRPPRLPRPRPRPRTMPRP	-0.0102
RRIRIRPPRLPRPRPRPQNAPRP	-0.297
RRIRTRPPRLPRPRPRPHTGPRP	-0.34
RRIRDRPPRLPRPRPRPGAQPRP	1.02

Sequence	shrunken log2 fold change
RRIRHRPPRLPRPRPRPPLSPRP	-0.0738
RRIRHRPPRLPRPRPRPAQAPRP	0.183
RRIRSRPPRLPRPRPRPSAIPRP	0.0168
RRIRKRPPRLPRPRPRPHKYPRP	-0.448
RRIRFRPPRLPRPRPRPWPAPRP	-0.0371
RRIRWRPPRLPRPRPRPENHPRP	-0.176
RRIRWRPPRLPRPRPRPPLLPRP	0.395
RRIRNRPPRLPRPRPRPRPEPRP	0.295
RRIRKRPPRLPRPRPRPIEDPRP	-0.0345
RRIRRRPPRLPRPRPRPPCSPRP	0.112
RRIRRRPPRLPRPRPRPEMWPRP	1.14
RRIRWRPPRLPRPRPRPTETPRP	0.0028
RRIRFRPPRLPRPRPRPTATPRP	0.355
RRIRARPPRLPRPRPRPIILPRP	-0.262
RRIRWRPPRLPRPRPRPFMDPRP	-0.41
RRIRVRPPRLPRPRPRPFDTPRP	-0.847
RRIRCRPPRLPRPRPRPPILPRP	-0.501
RRIRFRPPRLPRPRPRPRVGPRP	0.24
RRIRIRPPRLPRPRPRPSVDPRP	-0.326
RRIRLRPPRLPRPRPRPTDAPRP	0.193

Reference: the supplement of paper PMC9112550, “Optimization of the antimicrobial peptide Bac7 by deep mutational scanning” (BMC Biology, 2022)
